Experimental data taken from patent publication US20200199241A1 (Chugai, published 2020).
Positions count from the first letter of the chain named. Names and notes keep the numbering of the source.

T1: human FcγRIIa(R) (human, UniProt P12318 36-217)
T1 construct: also called FcgRIIaR; FcγRIIa type R
T1 chain: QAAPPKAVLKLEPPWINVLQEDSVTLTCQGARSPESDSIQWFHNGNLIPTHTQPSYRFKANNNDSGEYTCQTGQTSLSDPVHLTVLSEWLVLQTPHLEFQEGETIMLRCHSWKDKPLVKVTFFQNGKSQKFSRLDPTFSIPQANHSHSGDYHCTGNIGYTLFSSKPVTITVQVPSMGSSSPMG

T2: human FcγRIIa(H) (human, UniProt P12318 36-217)
T2 construct: also called FcgRIIaH; FcγRIIa type H
T2 sequence: T1 chain with R133H

T3: human FcγRIIb (human, UniProt P31994 43-217, limits assumed)
T3 construct: also called FcgRIIb
T3 sequence: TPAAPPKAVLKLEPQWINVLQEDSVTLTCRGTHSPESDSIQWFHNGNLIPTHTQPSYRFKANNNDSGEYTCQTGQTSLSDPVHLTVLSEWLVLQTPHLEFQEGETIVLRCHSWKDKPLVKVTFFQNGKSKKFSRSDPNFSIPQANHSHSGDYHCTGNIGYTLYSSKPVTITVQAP

B1: GpH7-B3 variant P238K/GpL16-k0 (antibody, human IgG1)
heavy: not shown
light: DIVMTQSPLSLPVTPGEPASISCQASESLVHSNRNTYLHWYLQKPGQSPQLLIYKVSNRFSGVPDRFSGSGSGTDFTLKISRVEAEDVGVYYCSQNTHVPPTFGQGTKVEIE
notes: copies: 2 + 2
B2: GpH7-B3 variant P238S/GpL16-k0 (antibody, human IgG1)
heavy: not shown
light: B1 light
notes: copies: 2 + 2
B3: GpH7-B3 variant P238N/GpL16-k0 (antibody, human IgG1)
heavy: not shown
light: B1 light
notes: copies: 2 + 2
B4: GpH7-B3 variant P238W/GpL16-k0 (antibody, human IgG1)
heavy: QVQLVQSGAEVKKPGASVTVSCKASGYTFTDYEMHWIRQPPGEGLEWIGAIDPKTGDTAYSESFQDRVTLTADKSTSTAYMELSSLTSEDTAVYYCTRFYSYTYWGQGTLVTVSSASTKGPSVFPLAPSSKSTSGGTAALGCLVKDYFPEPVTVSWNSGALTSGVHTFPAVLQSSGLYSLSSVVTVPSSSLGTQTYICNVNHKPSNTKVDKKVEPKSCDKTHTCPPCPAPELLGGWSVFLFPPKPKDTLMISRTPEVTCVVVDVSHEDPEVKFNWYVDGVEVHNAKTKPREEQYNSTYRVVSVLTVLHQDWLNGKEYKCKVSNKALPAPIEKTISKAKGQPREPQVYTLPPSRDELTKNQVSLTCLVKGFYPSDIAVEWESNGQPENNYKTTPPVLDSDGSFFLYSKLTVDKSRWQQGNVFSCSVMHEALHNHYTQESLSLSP
light: B1 light
notes: copies: 2 + 2
B5: GpH7-B3 variant V266E/GpL16-k0 (antibody, human IgG1)
heavy: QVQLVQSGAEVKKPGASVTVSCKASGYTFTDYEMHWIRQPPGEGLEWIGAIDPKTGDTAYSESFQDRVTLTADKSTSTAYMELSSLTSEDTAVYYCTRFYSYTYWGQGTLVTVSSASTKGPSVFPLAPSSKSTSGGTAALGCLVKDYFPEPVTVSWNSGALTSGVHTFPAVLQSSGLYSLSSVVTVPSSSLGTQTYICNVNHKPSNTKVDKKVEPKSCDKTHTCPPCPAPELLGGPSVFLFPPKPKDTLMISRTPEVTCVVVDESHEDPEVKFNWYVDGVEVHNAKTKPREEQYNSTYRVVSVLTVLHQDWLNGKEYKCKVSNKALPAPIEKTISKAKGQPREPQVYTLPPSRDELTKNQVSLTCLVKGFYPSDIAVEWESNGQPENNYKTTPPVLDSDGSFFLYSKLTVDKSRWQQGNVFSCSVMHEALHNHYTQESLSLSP
light: B1 light
notes: copies: 2 + 2
B6: GpH7-B3 variant V266D/GpL16-k0 (antibody, human IgG1)
heavy: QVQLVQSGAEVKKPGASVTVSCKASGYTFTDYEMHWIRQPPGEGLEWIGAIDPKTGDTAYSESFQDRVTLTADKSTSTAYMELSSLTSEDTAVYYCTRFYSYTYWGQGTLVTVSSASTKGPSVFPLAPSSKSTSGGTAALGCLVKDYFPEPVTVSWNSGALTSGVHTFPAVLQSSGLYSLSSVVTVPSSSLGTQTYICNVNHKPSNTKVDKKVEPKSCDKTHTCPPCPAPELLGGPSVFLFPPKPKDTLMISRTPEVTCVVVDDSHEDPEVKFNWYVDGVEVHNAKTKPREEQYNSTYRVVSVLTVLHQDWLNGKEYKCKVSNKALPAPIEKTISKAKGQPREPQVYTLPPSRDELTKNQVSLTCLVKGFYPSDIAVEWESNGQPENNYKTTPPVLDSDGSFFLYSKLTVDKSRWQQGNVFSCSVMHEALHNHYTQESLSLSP
light: B1 light
notes: copies: 2 + 2
B7: GpH7-B3 variant S267R/GpL16-k0 (antibody, human IgG1)
heavy: not shown
light: B1 light
notes: copies: 2 + 2
B8: GpH7-B3 variant P238R/GpL16-k0 (antibody, human IgG1)
heavy: not shown
light: B1 light
notes: copies: 2 + 2
B9: GpH7-B3 variant S267H/GpL16-k0 (antibody, human IgG1)
heavy: not shown
light: B1 light
notes: copies: 2 + 2
B10: GpH7-B3 variant P238T/GpL16-k0 (antibody, human IgG1)
heavy: not shown
light: B1 light
notes: copies: 2 + 2
B11: GpH7-B3 variant S267K/GpL16-k0 (antibody, human IgG1)
heavy: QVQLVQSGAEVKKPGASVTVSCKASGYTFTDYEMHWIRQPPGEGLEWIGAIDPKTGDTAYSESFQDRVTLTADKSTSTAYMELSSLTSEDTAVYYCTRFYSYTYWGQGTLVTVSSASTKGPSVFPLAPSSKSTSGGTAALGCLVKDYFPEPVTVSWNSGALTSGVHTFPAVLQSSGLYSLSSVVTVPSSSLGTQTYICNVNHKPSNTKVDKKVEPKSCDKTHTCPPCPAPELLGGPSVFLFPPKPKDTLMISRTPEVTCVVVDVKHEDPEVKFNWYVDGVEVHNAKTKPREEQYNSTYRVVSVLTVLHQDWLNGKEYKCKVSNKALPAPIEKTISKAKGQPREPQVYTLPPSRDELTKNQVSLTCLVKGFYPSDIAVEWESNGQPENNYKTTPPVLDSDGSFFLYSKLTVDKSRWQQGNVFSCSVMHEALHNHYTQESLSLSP
light: B1 light
notes: copies: 2 + 2
B12: GpH7-B3 variant S267W/GpL16-k0 (antibody, human IgG1)
heavy: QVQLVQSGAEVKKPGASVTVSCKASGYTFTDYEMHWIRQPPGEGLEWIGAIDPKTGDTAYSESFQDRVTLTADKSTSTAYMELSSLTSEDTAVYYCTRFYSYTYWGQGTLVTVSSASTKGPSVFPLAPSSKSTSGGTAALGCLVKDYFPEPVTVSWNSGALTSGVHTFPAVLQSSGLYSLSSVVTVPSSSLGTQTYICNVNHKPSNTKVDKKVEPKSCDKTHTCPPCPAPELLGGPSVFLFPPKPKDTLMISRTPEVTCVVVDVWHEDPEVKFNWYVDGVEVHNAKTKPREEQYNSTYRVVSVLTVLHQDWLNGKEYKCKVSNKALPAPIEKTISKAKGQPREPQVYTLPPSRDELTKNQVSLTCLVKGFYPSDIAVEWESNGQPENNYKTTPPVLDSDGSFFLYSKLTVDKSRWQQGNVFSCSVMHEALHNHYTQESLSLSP
light: B1 light
notes: copies: 2 + 2
B13: GpH7-B3 variant S267P/GpL16-k0 (antibody, human IgG1)
heavy: not shown
light: B1 light
notes: copies: 2 + 2
B14: GpH7-B3 variant S239P/GpL16-k0 (antibody, human IgG1)
heavy: not shown
light: B1 light
notes: copies: 2 + 2
B15: GpH7-B3 variant V266G/GpL16-k0 (antibody, human IgG1)
heavy: not shown
light: B1 light
notes: copies: 2 + 2
B16: GpH7-B3 variant P238Q/GpL16-k0 (antibody, human IgG1)
heavy: not shown
light: B1 light
notes: copies: 2 + 2
B17: GpH7-B3 variant S267F/GpL16-k0 (antibody, human IgG1)
heavy: not shown
light: B1 light
notes: copies: 2 + 2
B18: GpH7-B3 variant V266A/GpL16-k0 (antibody, human IgG1)
heavy: not shown
light: B1 light
notes: copies: 2 + 2
B19: GpH7-B3 variant S239Q/GpL16-k0 (antibody, human IgG1)
heavy: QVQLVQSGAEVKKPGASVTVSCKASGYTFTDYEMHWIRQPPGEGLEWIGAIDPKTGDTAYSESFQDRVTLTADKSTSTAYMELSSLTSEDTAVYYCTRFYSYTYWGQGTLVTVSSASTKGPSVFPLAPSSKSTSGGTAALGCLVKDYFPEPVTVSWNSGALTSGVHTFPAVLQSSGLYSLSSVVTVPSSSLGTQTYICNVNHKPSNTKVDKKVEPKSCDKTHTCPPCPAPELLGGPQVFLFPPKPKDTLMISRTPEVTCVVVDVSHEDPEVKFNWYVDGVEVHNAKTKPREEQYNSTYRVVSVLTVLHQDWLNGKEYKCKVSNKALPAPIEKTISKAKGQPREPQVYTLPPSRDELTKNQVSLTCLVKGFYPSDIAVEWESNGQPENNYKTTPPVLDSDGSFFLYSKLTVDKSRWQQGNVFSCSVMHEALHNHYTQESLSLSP
light: B1 light
notes: copies: 2 + 2
B20: GpH7-B3 variant S239H/GpL16-k0 (antibody, human IgG1)
heavy: not shown
light: B1 light
notes: copies: 2 + 2
B21: GpH7-B3 variant S239F/GpL16-k0 (antibody, human IgG1)
heavy: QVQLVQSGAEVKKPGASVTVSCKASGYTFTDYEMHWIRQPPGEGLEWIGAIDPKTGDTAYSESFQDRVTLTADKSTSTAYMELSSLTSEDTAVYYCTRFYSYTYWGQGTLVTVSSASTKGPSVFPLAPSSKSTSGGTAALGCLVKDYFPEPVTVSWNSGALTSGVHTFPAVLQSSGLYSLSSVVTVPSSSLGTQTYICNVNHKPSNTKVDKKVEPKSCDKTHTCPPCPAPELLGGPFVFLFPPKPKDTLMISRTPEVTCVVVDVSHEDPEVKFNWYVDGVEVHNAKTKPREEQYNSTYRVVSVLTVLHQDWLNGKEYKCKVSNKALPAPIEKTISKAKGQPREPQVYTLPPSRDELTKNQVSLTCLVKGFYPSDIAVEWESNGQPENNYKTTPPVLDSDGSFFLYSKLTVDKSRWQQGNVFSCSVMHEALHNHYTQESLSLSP
light: B1 light
notes: copies: 2 + 2
B22: GpH7-B3 variant S239K/GpL16-k0 (antibody, human IgG1)
heavy: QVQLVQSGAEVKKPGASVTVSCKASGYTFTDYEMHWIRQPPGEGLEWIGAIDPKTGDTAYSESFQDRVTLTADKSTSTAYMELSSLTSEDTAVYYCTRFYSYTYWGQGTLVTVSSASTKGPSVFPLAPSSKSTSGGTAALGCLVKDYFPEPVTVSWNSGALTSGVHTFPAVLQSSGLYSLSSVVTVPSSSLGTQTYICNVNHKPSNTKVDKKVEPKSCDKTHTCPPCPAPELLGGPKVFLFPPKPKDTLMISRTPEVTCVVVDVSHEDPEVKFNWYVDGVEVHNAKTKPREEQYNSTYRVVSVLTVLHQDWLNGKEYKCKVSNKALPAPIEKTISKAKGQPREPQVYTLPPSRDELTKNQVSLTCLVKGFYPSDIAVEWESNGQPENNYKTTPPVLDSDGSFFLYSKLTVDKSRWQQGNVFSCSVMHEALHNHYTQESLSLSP
light: B1 light
notes: copies: 2 + 2
B23: GpH7-B3 variant S239Y/GpL16-k0 (antibody, human IgG1)
heavy: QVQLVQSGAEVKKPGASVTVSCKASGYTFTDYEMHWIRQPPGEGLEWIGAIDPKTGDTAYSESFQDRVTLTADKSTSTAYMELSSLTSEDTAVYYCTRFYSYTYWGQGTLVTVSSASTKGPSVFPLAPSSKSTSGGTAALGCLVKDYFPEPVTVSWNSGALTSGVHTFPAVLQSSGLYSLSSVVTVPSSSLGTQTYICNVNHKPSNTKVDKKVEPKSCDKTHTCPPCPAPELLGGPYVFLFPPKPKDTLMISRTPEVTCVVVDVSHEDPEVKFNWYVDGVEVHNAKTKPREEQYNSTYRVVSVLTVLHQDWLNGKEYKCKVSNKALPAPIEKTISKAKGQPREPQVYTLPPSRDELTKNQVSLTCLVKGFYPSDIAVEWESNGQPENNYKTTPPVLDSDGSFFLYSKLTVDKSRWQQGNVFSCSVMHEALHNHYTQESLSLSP
light: B1 light
notes: copies: 2 + 2
B24: GpH7-B3 variant S267Y/GpL16-k0 (antibody, human IgG1)
heavy: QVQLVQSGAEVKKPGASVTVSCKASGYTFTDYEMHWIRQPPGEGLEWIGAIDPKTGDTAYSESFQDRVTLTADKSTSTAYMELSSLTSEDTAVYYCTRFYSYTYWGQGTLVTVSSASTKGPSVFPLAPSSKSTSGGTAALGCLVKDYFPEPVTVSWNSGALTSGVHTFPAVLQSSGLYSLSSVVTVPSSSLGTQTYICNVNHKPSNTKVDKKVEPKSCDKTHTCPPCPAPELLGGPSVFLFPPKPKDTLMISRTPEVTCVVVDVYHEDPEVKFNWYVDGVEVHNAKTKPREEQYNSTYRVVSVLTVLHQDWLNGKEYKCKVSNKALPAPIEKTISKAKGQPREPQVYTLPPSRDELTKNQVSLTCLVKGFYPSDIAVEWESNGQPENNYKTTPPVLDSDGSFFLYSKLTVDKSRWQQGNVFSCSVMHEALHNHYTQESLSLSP
light: B1 light
notes: copies: 2 + 2

These binders were tested against T4, human FcγRIa (human, UniProt P12314 16-292, limits assumed) (assay: SPR (Biacore);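 further: antibody variants captured on sensor chip, Fcγ receptor flowed over at 25 °C, bound receptor normalized to amount of captured antibody, expressed relative to reference antibody set as 100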).
T4 construct: also called FcgRIa; FcγRI (CD64)
T4 sequence (P12314 16-292 limits assumed): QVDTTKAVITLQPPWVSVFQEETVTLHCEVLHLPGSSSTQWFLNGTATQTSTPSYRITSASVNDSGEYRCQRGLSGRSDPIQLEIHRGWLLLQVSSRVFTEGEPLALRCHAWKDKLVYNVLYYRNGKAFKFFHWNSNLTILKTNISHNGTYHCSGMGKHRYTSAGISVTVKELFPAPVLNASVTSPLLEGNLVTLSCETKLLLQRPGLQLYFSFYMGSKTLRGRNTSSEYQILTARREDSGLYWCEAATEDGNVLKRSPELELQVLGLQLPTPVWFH

| relative binding activity | Binder |
| --- | --- |
| 8 % of GpH7-B3/GpL16-k0 | B1 |
| 91 % of GpH7-B3/GpL16-k0 | B2 |
| 64 % of GpH7-B3/GpL16-k0 | B3 |
| 99 % of GpH7-B3/GpL16-k0 | B4 |
| 69 % of GpH7-B3/GpL16-k0 | B5 |
| 67 % of GpH7-B3/GpL16-k0 | B6 |
| 78 % of GpH7-B3/GpL16-k0 | B7 |
| 1 % of GpH7-B3/GpL16-k0 | B8 |
| 95 % of GpH7-B3/GpL16-k0 | B9 |
| 67 % of GpH7-B3/GpL16-k0 | B10 |
| 68 % of GpH7-B3/GpL16-k0 | B11 |
| 97 % of GpH7-B3/GpL16-k0 | B12 |
| 78 % of GpH7-B3/GpL16-k0 | B13 |
| 89 % of GpH7-B3/GpL16-k0 | B14 |
| 86 % of GpH7-B3/GpL16-k0 | B15 |
| 84 % of GpH7-B3/GpL16-k0 | B16 |
| 91 % of GpH7-B3/GpL16-k0 | B17 |
| 95 % of GpH7-B3/GpL16-k0 | B18 |
| 96 % of GpH7-B3/GpL16-k0 | B19 |
| 64 % of GpH7-B3/GpL16-k0 | B20 |
| 77 % of GpH7-B3/GpL16-k0 | B21 |
| 6 % of GpH7-B3/GpL16-k0 | B22 |
| 69 % of GpH7-B3/GpL16-k0 | B23 |
| 96 % of GpH7-B3/GpL16-k0 | B24 |

Target: T1, human FcγRIIa(R)
Assay: SPR (Biacore);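 further: antibody variants captured on sensor chip, Fcγ receptor flowed over at 25 °C, bound receptor normalized to amount of captured antibody, expressed relative to reference antibody set as 100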

| relative binding activity | Binder |
| --- | --- |
| -2 % of GpH7-B3/GpL16-k0 | B1 |
| 32 % of GpH7-B3/GpL16-k0 | B2 |
| 5 % of GpH7-B3/GpL16-k0 | B3 |
| 25 % of GpH7-B3/GpL16-k0 | B4 |
| -3 % of GpH7-B3/GpL16-k0 | B5 |
| 3 % of GpH7-B3/GpL16-k0 | B6 |
| -6 % of GpH7-B3/GpL16-k0 | B7 |
| -1 % of GpH7-B3/GpL16-k0 | B8 |
| 27 % of GpH7-B3/GpL16-k0 | B9 |
| 19 % of GpH7-B3/GpL16-k0 | B10 |
| 1 % of GpH7-B3/GpL16-k0 | B11 |
| 26 % of GpH7-B3/GpL16-k0 | B12 |
| 0 % of GpH7-B3/GpL16-k0 | B13 |
| 49 % of GpH7-B3/GpL16-k0 | B14 |
| 27 % of GpH7-B3/GpL16-k0 | B15 |
| 19 % of GpH7-B3/GpL16-k0 | B16 |
| 13 % of GpH7-B3/GpL16-k0 | B17 |
| 68 % of GpH7-B3/GpL16-k0 | B18 |
| 57 % of GpH7-B3/GpL16-k0 | B19 |
| 38 % of GpH7-B3/GpL16-k0 | B20 |
| 20 % of GpH7-B3/GpL16-k0 | B21 |
| 4 % of GpH7-B3/GpL16-k0 | B22 |
| 11 % of GpH7-B3/GpL16-k0 | B23 |
| 10 % of GpH7-B3/GpL16-k0 | B24 |

The binders below were run against T2, human FcγRIIa(H) (assay: SPR (Biacore);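 further: antibody variants captured on sensor chip, Fcγ receptor flowed over at 25 °C, bound receptor normalized to amount of captured antibody, expressed relative to reference antibody set as 100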).

| relative binding activity | Binder |
| --- | --- |
| -1 % of GpH7-B3/GpL16-k0 | B1 |
| 13 % of GpH7-B3/GpL16-k0 | B2 |
| 1 % of GpH7-B3/GpL16-k0 | B3 |
| 2 % of GpH7-B3/GpL16-k0 | B4 |
| 0 % of GpH7-B3/GpL16-k0 | B5 |
| 2 % of GpH7-B3/GpL16-k0 | B6 |
| -1 % of GpH7-B3/GpL16-k0 | B7 |
| -1 % of GpH7-B3/GpL16-k0 | B8 |
| 3 % of GpH7-B3/GpL16-k0 | B9 |
| 6 % of GpH7-B3/GpL16-k0 | B10 |
| 1 % of GpH7-B3/GpL16-k0 | B11 |
| 2 % of GpH7-B3/GpL16-k0 | B12 |
| 2 % of GpH7-B3/GpL16-k0 | B13 |
| 4 % of GpH7-B3/GpL16-k0 | B14 |
| 10 % of GpH7-B3/GpL16-k0 | B15 |
| 4 % of GpH7-B3/GpL16-k0 | B16 |
| 1 % of GpH7-B3/GpL16-k0 | B17 |
| 41 % of GpH7-B3/GpL16-k0 | B18 |
| 58 % of GpH7-B3/GpL16-k0 | B19 |
| 19 % of GpH7-B3/GpL16-k0 | B20 |
| 11 % of GpH7-B3/GpL16-k0 | B21 |
| 4 % of GpH7-B3/GpL16-k0 | B22 |
| 5 % of GpH7-B3/GpL16-k0 | B23 |
| 2 % of GpH7-B3/GpL16-k0 | B24 |

Each binder was assayed against T3, human FcγRIIb (assay: SPR (Biacore);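 further: antibody variants captured on sensor chip, Fcγ receptor flowed over at 25 °C, bound receptor normalized to amount of captured antibody, expressed relative to reference antibody set as 100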).

| relative binding activity | Binder |
| --- | --- |
| -2 % of GpH7-B3/GpL16-k0 | B1 |
| 28 % of GpH7-B3/GpL16-k0 | B2 |
| 27 % of GpH7-B3/GpL16-k0 | B3 |
| 13 % of GpH7-B3/GpL16-k0 | B4 |
| 0 % of GpH7-B3/GpL16-k0 | B5 |
| 2 % of GpH7-B3/GpL16-k0 | B6 |
| 0 % of GpH7-B3/GpL16-k0 | B7 |
| -2 % of GpH7-B3/GpL16-k0 | B8 |
| 42 % of GpH7-B3/GpL16-k0 | B9 |
| 8 % of GpH7-B3/GpL16-k0 | B10 |
| 3 % of GpH7-B3/GpL16-k0 | B11 |
| 29 % of GpH7-B3/GpL16-k0 | B12 |
| 5 % of GpH7-B3/GpL16-k0 | B13 |
| 61 % of GpH7-B3/GpL16-k0 | B14 |
| 22 % of GpH7-B3/GpL16-k0 | B15 |
| 43 % of GpH7-B3/GpL16-k0 | B16 |
| 18 % of GpH7-B3/GpL16-k0 | B17 |
| 55 % of GpH7-B3/GpL16-k0 | B18 |
| 68 % of GpH7-B3/GpL16-k0 | B19 |
| 24 % of GpH7-B3/GpL16-k0 | B20 |
| 12 % of GpH7-B3/GpL16-k0 | B21 |
| 1 % of GpH7-B3/GpL16-k0 | B22 |
| 12 % of GpH7-B3/GpL16-k0 | B23 |
| 14 % of GpH7-B3/GpL16-k0 | B24 |

These binders were tested against T5, human FcγRIIIa(F) (human, UniProt P08637 17-208, limits assumed) (assay: SPR (Biacore)).
T5 construct: also called FcgRIIIaF; allotype F158
T5 sequence (P08637 other isoform, or with tags, fused parts or gaps limits assumed): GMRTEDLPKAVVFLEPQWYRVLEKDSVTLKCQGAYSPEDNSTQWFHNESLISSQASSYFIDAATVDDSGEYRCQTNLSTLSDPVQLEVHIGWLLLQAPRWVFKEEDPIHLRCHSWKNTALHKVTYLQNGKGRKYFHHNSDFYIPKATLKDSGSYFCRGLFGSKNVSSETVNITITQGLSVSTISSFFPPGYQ

| relative binding activity | Binder |
| --- | --- |
| -1 % of GpH7-B3/GpL16-k0 | B1 |
| 3 % of GpH7-B3/GpL16-k0 | B2 |
| -1 % of GpH7-B3/GpL16-k0 | B3 |
| -1 % of GpH7-B3/GpL16-k0 | B4 |
| -1 % of GpH7-B3/GpL16-k0 | B5 |
| 1 % of GpH7-B3/GpL16-k0 | B6 |
| 0 % of GpH7-B3/GpL16-k0 | B7 |
| -1 % of GpH7-B3/GpL16-k0 | B8 |
| 1 % of GpH7-B3/GpL16-k0 | B9 |
| 0 % of GpH7-B3/GpL16-k0 | B10 |
| 1 % of GpH7-B3/GpL16-k0 | B11 |
| 2 % of GpH7-B3/GpL16-k0 | B12 |
| 0 % of GpH7-B3/GpL16-k0 | B13 |
| -1 % of GpH7-B3/GpL16-k0 | B14 |
| 3 % of GpH7-B3/GpL16-k0 | B15 |
| -1 % of GpH7-B3/GpL16-k0 | B16 |
| 0 % of GpH7-B3/GpL16-k0 | B17 |
| 26 % of GpH7-B3/GpL16-k0 | B18 |
| 29 % of GpH7-B3/GpL16-k0 | B19 |
| 6 % of GpH7-B3/GpL16-k0 | B20 |
| 3 % of GpH7-B3/GpL16-k0 | B21 |
| 0 % of GpH7-B3/GpL16-k0 | B22 |
| 6 % of GpH7-B3/GpL16-k0 | B23 |
| 1 % of GpH7-B3/GpL16-k0 | B24 |
